According to paper doi:10.1101/2024.06.25.600654 (bioRxiv, 2024):

Target: the molecule itself
Experiment: SEC-SAXS

B1: ParB1 from Vibrio cholerae (vcParB1) (natural protein)
chain: MTKRGLGKGLDALLATSSLAREKQQVASLSQSMSAEGELADLSISNLKPGIYQPRKDLSPEALEELAASIQSQGIIQPIVVRHLPTGGYEIIAGERRWRAAKQAGLKQVPCLIKQVEDRGAIAMALIENIQREDLNAMEEAQALERLQNEFNLTHQQVAEVIGKSRTTVTNLLRLNQLSDDVKRLLETKQLEMGHARALLMLEGEQQVEIAQQVAKKQLTVRQTEQLVKKCLSDPSDAKNVSEDLEIQQLSQNLSEKLAAKVSIVRTPNGKSKVTISLDEPHKLELLIAKLQN
Q: Which “stoichiometry N” value does the source give for B1 here?
A: 2
